PMC7266993, “STAG1 vulnerabilities for exploiting cohesin synthetic lethality in STAG2-deficient cancers” (Life Science Alliance, 2020)

What was measured:
[1] = molecular target: T1, Biotinylated RAD21 peptide, residues 356-395 (Biotin-Ttds-RAD21 356-395) (human, N-terminal biotin followed by a trioxatridecan–succinamic acid spacer (Biotin-Ttds-)); experiment: SPR; Biacore S200, SA chip, ~400 RU biotinylated RAD21 356-395 immobilised; STAG1 as analyte, single cycle kinetics 7.5-1,000 nM, 120 s injections; 10 mM Hepes pH 7.5, 150 mM NaCl, 0.5 mM TCEP; 1:1 binding model; details: both partners purified
T1 construct: Immobilised on a streptavidin (SA) sensor chip through the biotin; source: synthetic peptide, purchased
T1 peptide: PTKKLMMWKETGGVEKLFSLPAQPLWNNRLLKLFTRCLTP

[2] = molecular target: T1, Biotinylated RAD21 peptide, residues …; experiment: SPR; Biacore S200, SA chip, biotinylated RAD21 356-395 immobilised; STAG1 as analyte, equilibrium analysis (650 s association, 1,200 s dissociation), dose-response fit; 10 mM Hepes pH 7.5, 150 mM NaCl, 0.5 mM TCEP; apparent; details: both partners purified

B1: STAG1 central region, wild type, as used in surface plasmon resonance (residues 415-915 as printed in the results) (domain or fragment)
chain: NVYHLVYSAHRPVAVAAGEFLHKKLFSRHDPQAEEALAKRRGRNSPNGNLIRMLVLFFLESELHEHAAYLVDSLWESSQELLKDWECMTELLLEEPVQGEEAMSDRQESALIELMVCTIRQAAEAHPPVGRGTGKRVLTAKERKTQIDDRNKLTEHFIITLPMLLSKYSADAEKVANLLQIPQYFDLEIYSTGRMEKHLDALLKQIKFVVEKHVESDVLEACSKTYSILCSEEYTIQNRVDIARSQLIDEFVDRFNHSVEDLLQEGEEADDDDIYNVLSTLKRLTSFHNAHDLTKWDLFGNCYRLLKTGIEHGAMPEQIVVQALQCSHYSILWQLVKITDGSPSKEDLLVLRKTVKSFLAVCQQCLSNVNTPVKEQAFMLLCDLLMIFSHQLMTGGREGLQPLVFNPDTGLQSELLSFVMDHVFIDQDEENQSMEGDEEDEANKIEALHKRRNLLAAFSKLIIYDIVDMHAAADIFKHYMKYYNDYGDIIKETLSKTRQID
- Kd [1]: 127 nM
- koff [1]: 0.00709 s⁻¹
- kon [1]: 55900 M⁻¹ s⁻¹
- Kd [2]: 148 ± 22 nM
